Source: patent publication US10808009B2, “Peptide conjugates” (BIONIZ, LLC, priority 2011, dated 2020)
No end group written: not given here. MAL‑PEG24 = bi-functional PEG24 molecule (Mal-PEG24)

Tests used:
Type in all cases: cell-based
IL-2 = IL-2 (Homo sapiens, UniProt P60568); experiment: CTLL2 proliferation assay (WST-1), IL-2, dual peptide; settings: CTLL2 cells, IL-2 5 u/ml and 10 u/ml, increasing BNZ132-PEG-130 (0.1-10 uM)
IL-15 = IL-15 (Homo sapiens, UniProt P40933); experiment: CTLL2 proliferation assay (WST-1), IL-15, dual peptide; settings: CTLL2 cells, IL-15 2.5 ng/ml and 5 ng/ml, increasing BNZ132-PEG-130 (0.1-10 uM)
Chain of IL-15 (P40933 49-162): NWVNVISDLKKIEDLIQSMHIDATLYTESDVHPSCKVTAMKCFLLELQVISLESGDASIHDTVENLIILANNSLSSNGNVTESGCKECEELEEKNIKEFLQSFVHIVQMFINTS

IL-6 = experiment: T1165 proliferation assay (WST-1), IL-6, dual peptide; settings: T1165 cells, IL-6 0.1 ng/ml, increasing BNZ132-PEG-130

Chain of IL-2 (P60568 21-153): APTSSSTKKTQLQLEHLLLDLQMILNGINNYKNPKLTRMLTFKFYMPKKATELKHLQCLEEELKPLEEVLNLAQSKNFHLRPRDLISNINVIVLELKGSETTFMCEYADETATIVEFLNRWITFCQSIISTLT

IKEFLQSFIHIVQSIINT (SEQ ID NO: 130)—MAL-PEG24—SLTHLIERSSRAVLQSLLRASRQ (SEQ ID NO: 131) (linker (positions not given here) via MAL‑PEG24; also: MAL-PEG24 attachment sites not given here) [BNZ132-PEG-130, BNZ132-1 conjugated to BNZ130 via a PEG24 linker; dual peptide antagonist]
inhibited in a dose response manner: inhibition of IL-2-induced proliferation (IL-2) | inhibition of IL-15-induced proliferation (IL-15) | inhibition of IL-6-induced proliferation (IL-6)
